For 39 molecules, binding signal results are on record in article PMC10681739, “High-throughput data and modeling reveal insights into the mechanisms of cooperative DNA-binding by transcription factor proteins”.

The data set deals with T1, ETS1 (Homo sapiens, UniProt P14921).
T1 sequence: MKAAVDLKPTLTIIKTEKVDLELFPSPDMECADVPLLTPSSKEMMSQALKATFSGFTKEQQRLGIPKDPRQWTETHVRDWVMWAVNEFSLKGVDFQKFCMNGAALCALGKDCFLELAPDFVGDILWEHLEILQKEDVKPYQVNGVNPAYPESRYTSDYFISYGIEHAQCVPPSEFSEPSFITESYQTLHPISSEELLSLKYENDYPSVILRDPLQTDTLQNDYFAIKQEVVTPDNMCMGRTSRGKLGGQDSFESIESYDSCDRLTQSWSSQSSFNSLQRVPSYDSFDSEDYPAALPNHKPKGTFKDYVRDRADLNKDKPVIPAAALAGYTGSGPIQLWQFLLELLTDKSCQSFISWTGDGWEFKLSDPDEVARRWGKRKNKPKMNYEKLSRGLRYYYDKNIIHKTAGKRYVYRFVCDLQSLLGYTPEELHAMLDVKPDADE
Kind of data set: gcPBM; 1 nM ETS1. To be noted: tags: N-terminal GST (pDEST15), kept (PMC6008103); label: surface-attached array probe.

B1: Table S2 C row 86 (dsDNA)
DNA 1: CGTCACTTCTGGAGCTGCGGTCGGGATCTGGGAGGA
DNA 2: TCCTCCCAGATCCCGACCGCAGCTCCAGAAGTGACG
Take B1: the binding signal is 360 PBM fluorescence, median of replicate spots.

B2: Table S2 C row 71 (dsDNA)
DNA 1: CTGGGTTGGATGACCTGCGGTGGAACAGATGGCTCC
DNA 2: GGAGCCATCTGTTCCACCGCAGGTCATCCAACCCAG
In the case of B2, the binding signal was 374 PBM fluorescence, median of replicate spots.

B3: Table S2 C row 24 (dsDNA)
DNA 1: GACGGGCGCGCGGCTTGCGGGCGGCGGGGCGCTGGG
DNA 2: CCCAGCGCCCCGCCGCCCGCAAGCCGCGCGCCCGTC
Take B3: the binding signal was 371 PBM fluorescence, median of replicate spots.

B4: Table S2 C row 114 (dsDNA)
DNA 1: CTCTTCCATGCAGGCTGTGGTTGCCTTCAAATACCG
DNA 2: CGGTATTTGAAGGCAACCACAGCCTGCATGGAAGAG
B4: the binding signal was 357 PBM fluorescence, median of replicate spots.

B5: Table S2 C row 147 (dsDNA)
DNA 1: GGCCTCTGAGGAGCAGCCGCAGGAGGAGGAGGAGGT
DNA 2: ACCTCCTCCTCCTCCTGCGGCTGCTCCTCAGAGGCC
Turning to B5, the binding signal is 353 PBM fluorescence, median of replicate spots.

B6: Table S2 C row 129 (dsDNA)
DNA 1: GCAGCTGTAGAGGCCTGAGGTTTACCTAATCTGCTA
DNA 2: TAGCAGATTAGGTAAACCTCAGGCCTCTACAGCTGC
As for B6, the binding signal was 377 PBM fluorescence, median of replicate spots.

B7: Table S2 C row 109 (dsDNA)
DNA 1: CAAGCCCAAGAACGCTGTGGTTTTTGCAGACTCATA
DNA 2: TATGAGTCTGCAAAAACCACAGCGTTCTTGGGCTTG
Consider B7, for which the binding signal was 353 PBM fluorescence, median of replicate spots.

B8: Table S2 C row 37 (dsDNA)
DNA 1: CTGGTGCAGAAAAAAACCACACAAGCCATTGGGTAG
DNA 2: CTACCCAATGGCTTGTGTGGTTTTTTTCTGCACCAG
As to B8, the binding signal was 369 PBM fluorescence, median of replicate spots.

B9: Table S2 C row 56 (dsDNA)
DNA 1: TGTCTATCGATTAAAACCACTGGTAAGAGCCATTGA
DNA 2: TCAATGGCTCTTACCAGTGGTTTTAATCGATAGACA
As for B9, the binding signal was 359 PBM fluorescence, median of replicate spots.

B10: Table S2 C row 55 (dsDNA)
DNA 1: CTGACATTTAAGCTCACCACATGTGGGATAGTTAGT
DNA 2: ACTAACTATCCCACATGTGGTGAGCTTAAATGTCAG
Consider B10, for which the binding signal was 379 PBM fluorescence, median of replicate spots.

B11: Table S2 C row 190 (dsDNA)
DNA 1: TAAGAGAAAGCGCAAACCGCACAAGACCAGTTCAAA
DNA 2: TTTGAACTGGTCTTGTGCGGTTTGCGCTTTCTCTTA
Turning to B11, the binding signal is 359 PBM fluorescence, median of replicate spots.

B12: Table S2 C row 57 (dsDNA)
DNA 1: CACAGAACTGACCAGACCACATGGAGGCCAATCAAA
DNA 2: TTTGATTGGCCTCCATGTGGTCTGGTCAGTTCTGTG
With B12, the binding signal is 379 PBM fluorescence, median of replicate spots.

B13: Table S2 B row 1682 (dsDNA)
DNA 1: CTTGTTCTATTTCCTGTTTGTGCTGAGTGACTGTCT
DNA 2: AGACAGTCACTCAGCACAAACAGGAAATAGAACAAG
Take B13: the binding signal was 15900 PBM fluorescence, median of replicate spots.

B14: Table S2 C row 59 (dsDNA)
DNA 1: CAGACAGTAACAAATGGTGGTTGCCGTCATGTGAAG
DNA 2: CTTCACATGACGGCAACCACCATTTGTTACTGTCTG
As to B14, the binding signal was 367 PBM fluorescence, median of replicate spots.

B15: Table S2 C row 40 (dsDNA)
DNA 1: CTTCACGGCTAGTTCTGTGGGTGTCCCACTTAGTTT
DNA 2: AAACTAAGTGGGACACCCACAGAACTAGCCGTGAAG
Turning to B15, the binding signal was 366 PBM fluorescence, median of replicate spots.

B16: Table S2 C row 171 (dsDNA)
DNA 1: GACTGGTGGATCACTTGAGGTCAGTTTGAGACCAGC
DNA 2: GCTGGTCTCAAACTGACCTCAAGTGATCCACCAGTC
B16: the binding signal was 359 PBM fluorescence, median of replicate spots.

B17: Table S2 C row 7 (dsDNA)
DNA 1: AAATAGCGCAGGTCAACCACAGACCCCAGCACTGCA
DNA 2: TGCAGTGCTGGGGTCTGTGGTTGACCTGCGCTATTT
With B17, the binding signal is 355 PBM fluorescence, median of replicate spots.

B18: Table S2 C row 178 (dsDNA)
DNA 1: GGCTGACTCTGTATCTGTGGGTGCTTCAGGGCCAAC
DNA 2: GTTGGCCCTGAAGCACCCACAGATACAGAGTCAGCC
With B18, the binding signal is 371 PBM fluorescence, median of replicate spots.

B19: Table S2 C row 156 (dsDNA)
DNA 1: AGGTGTGCTCTCCACCGCGGTTCACAAGGTGTCTGC
DNA 2: GCAGACACCTTGTGAACCGCGGTGGAGAGCACACCT
Consider B19, for which the binding signal is 376 PBM fluorescence, median of replicate spots.

B20: Table S2 C row 127 (dsDNA)
DNA 1: CCGCCCTCGGTCCCCACCGCGGAGGACTCTCTCAAG
DNA 2: CTTGAGAGAGTCCTCCGCGGTGGGGACCGAGGGCGG
For B20, the binding signal is 352 PBM fluorescence, median of replicate spots.

B21: Table S2 C row 102 (dsDNA)
DNA 1: GGTCAGGAGGGATGAACCACCGCTTACTCGTTCTTC
DNA 2: GAAGAACGAGTAAGCGGTGGTTCATCCCTCCTGACC
B21: the binding signal is 362 PBM fluorescence, median of replicate spots.

B22: Table S2 C row 65 (dsDNA)
DNA 1: GTCAGCTATAGTGACACCACAAGGCCTGAAGAGGGC
DNA 2: GCCCTCTTCAGGCCTTGTGGTGTCACTATAGCTGAC
On to B22, for which the binding signal is 370 PBM fluorescence, median of replicate spots.

B23: Table S2 C row 110 (dsDNA)
DNA 1: GGATTCAACATTCCTTGTGGGCTGCTGGCCCCAGAC
DNA 2: GTCTGGGGCCAGCAGCCCACAAGGAATGTTGAATCC
As for B23, the binding signal is 359 PBM fluorescence, median of replicate spots.

B24: Table S2 C row 79 (dsDNA)
DNA 1: CCCATCAGCAGAAAAACCACAGCAAGCTTAATGTGC
DNA 2: GCACATTAAGCTTGCTGTGGTTTTTCTGCTGATGGG
On to B24, for which the binding signal was 369 PBM fluorescence, median of replicate spots.

B25: Table S2 C row 145 (dsDNA)
DNA 1: TGTGGCTGCCCTCAGACCACAAACCACCAGCCCTAT
DNA 2: ATAGGGCTGGTGGTTTGTGGTCTGAGGGCAGCCACA
With B25, the binding signal is 352 PBM fluorescence, median of replicate spots.

B26: Table S2 C row 87 (dsDNA)
DNA 1: GAATGTCTTTAAAAAACCACAGAATTGGGCTGGGCG
DNA 2: CGCCCAGCCCAATTCTGTGGTTTTTTAAAGACATTC
Regarding B26, the binding signal is 379 PBM fluorescence, median of replicate spots.

B27: Table S2 C row 75 (dsDNA)
DNA 1: AGCTCTGAGAATCATTGTGGCCACACTGTCATGGTC
DNA 2: GACCATGACAGTGTGGCCACAATGATTCTCAGAGCT
Turning to B27, the binding signal is 376 PBM fluorescence, median of replicate spots.

B28: Table S2 C row 83 (dsDNA)
DNA 1: AGAACTTAAGATCTCTGTGGCTTGTGTGTGTGTGTA
DNA 2: TACACACACACACAAGCCACAGAGATCTTAAGTTCT
For the molecule B28, the binding signal was 361 PBM fluorescence, median of replicate spots.

B29: Table S2 C row 18 (dsDNA)
DNA 1: ACCCTCGAAGCTCTAACCACTGTGGGCTATTTTTGC
DNA 2: GCAAAAATAGCCCACAGTGGTTAGAGCTTCGAGGGT
In the case of B29, the binding signal is 356 PBM fluorescence, median of replicate spots.

B30: Table S2 B row 3812 (dsDNA)
DNA 1: GAGTCGCTTCCGCTCCCGCCCCGCTCTCTGGCGTAG
DNA 2: CTACGCCAGAGAGCGGGGCGGGAGCGGAAGCGACTC
On to B30, for which the binding signal was 15300 PBM fluorescence, median of replicate spots.

B31: Table S2 C row 124 (dsDNA)
DNA 1: CGCAGCTCCCCACTGTGCGGTTATCTAGGCCAGCAC
DNA 2: GTGCTGGCCTAGATAACCGCACAGTGGGGAGCTGCG
In the case of B31, the binding signal was 376 PBM fluorescence, median of replicate spots.

B32: Table S2 C row 5 (dsDNA)
DNA 1: TAGTGTGAATCCCCGCCCACAGAGGGGCGGCACGTT
DNA 2: AACGTGCCGCCCCTCTGTGGGCGGGGATTCACACTA
Regarding B32, the binding signal was 372 PBM fluorescence, median of replicate spots.

B33: Table S2 C row 43 (dsDNA)
DNA 1: GGCTTTCCAAGCTAGTGTGGTCCACTTGCTCCCTCA
DNA 2: TGAGGGAGCAAGTGGACCACACTAGCTTGGAAAGCC
With B33, the binding signal is 378 PBM fluorescence, median of replicate spots.

B34: Table S2 C row 144 (dsDNA)
DNA 1: ACCGTCAATCTCGACACCGCGGAGCACAATGCGTGC
DNA 2: GCACGCATTGTGCTCCGCGGTGTCGAGATTGACGGT
As to B34, the binding signal is 352 PBM fluorescence, median of replicate spots.

B35: Table S2 C row 104 (dsDNA)
DNA 1: TCTCCCAGCGTCTGATGTGGCTTCGGTGTCAGACAT
DNA 2: ATGTCTGACACCGAAGCCACATCAGACGCTGGGAGA
Consider B35, for which the binding signal is 352 PBM fluorescence, median of replicate spots.

B36: Table S2 B row 2515 (dsDNA)
DNA 1: CGGTGGCTTCCGGCCCATGGCGCTGGTTGGTGACTC
DNA 2: GAGTCACCAACCAGCGCCATGGGCCGGAAGCCACCG
Take B36: the binding signal was 14700 PBM fluorescence, median of replicate spots.

B37: Table S2 C row 90 (dsDNA)
DNA 1: ACTGAAAATCTGCCTTGTGGCTGCTTCTGGTACACA
DNA 2: TGTGTACCAGAAGCAGCCACAAGGCAGATTTTCAGT
For the molecule B37, the binding signal was 355 PBM fluorescence, median of replicate spots.

B38: Table S2 C row 70 (dsDNA)
DNA 1: AAAGTCATTTAAGTGACCACACTTTATAGGCTTGCC
DNA 2: GGCAAGCCTATAAAGTGTGGTCACTTAAATGACTTT
Regarding B38, the binding signal is 361 PBM fluorescence, median of replicate spots.

B39: Table S2 C row 21 (dsDNA)
DNA 1: TTGCAGAGTTAGCTAGCCACAGGCAAGTCTCCATTG
DNA 2: CAATGGAGACTTGCCTGTGGCTAGCTAACTCTGCAA
On to B39, for which the binding signal is 364 PBM fluorescence, median of replicate spots.
